Experimental data published in doi:10.1101/2025.02.07.637115 (bioRxiv, 2025).

B1: ActRIIB2-Fc (trap containing two ActRIIB ECDs) (Fc fusion)
chain: SGRGEAETRECIYYNANWELERTNQSGLERCEGEQDKRLHCYASWRNSSGTIELVKKGCWLDDFNCYDRQECVATEENPQVYFCCCEGNFCNERFTHLPEAGGPEVTYEPPPTAP
B2: BMP6, mammalian expressed (glycosylated), recombinant human (ligand)
chain: SASSRRRQQSRNRSTQSQDVARVSSASDYNSSELKTACRKHELYVSFQDLGWQDWIIAPKGYAANYCDGECSFPLNAHMNATNHAIVQTLVHLMNPEYVPKPCCAPTKLNAISVLYFDDNSNVILKKYRNMVVRACGCH
modifications: N-linked glycosylation at Asn454 (prehelix loop)
B3: deglycosylated BMP6 (ligand)
chain: B2 chain
modifications: deglycosylated with PNGase F
B4: ALK3 extracellular domain (ALK3 arm of ALK3-ActRIIB in the cryoEM structure) (domain or fragment)
chain: QNLDSMLHGTGMKSDSDQKKSENGVTLAPEDTLPFLKCYCSGHCPDDAINNTCITNGHCFAIIEEDDQGETTLASGCMKYEGSDFQCKDSPKAQLRRTIECCRTNLCNQYLQPTLPPVVIGPFFDGSIR
B5: ALK3-Fc (homodimeric Fc-fusion of ALK3-ECD) (Fc fusion)
chain: B4 chain

Key:
[1] = biological target: ActRIIB1-Fc (trap with a single ActRIIB ECD) (human); assay: SPR
[2] = biological target: B2; assay: SPR
cryo-EM structure = biological target: the molecule itself; assay: cryo-EM structure
[3] = biological target: ALK2-ActRIIB-Fc heterodimeric trap (human, UniProt Q04771;Q13705); assay: SPR
ALK2-ActRIIB-Fc heterodimeric trap, sequence (Q04771 21-123, one chain of several): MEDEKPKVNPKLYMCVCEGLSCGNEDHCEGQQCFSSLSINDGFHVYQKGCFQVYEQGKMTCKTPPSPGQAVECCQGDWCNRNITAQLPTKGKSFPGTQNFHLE

[4] = biological target: ALK3-ActRIIB-Fc heterodimeric trap (human, UniProt P36894;Q13705); assay: SPR
[5] = biological target: B2; assay: cryo-EM structure

BMP6, mammalian expressed (glycosylated), recombinant human (from UniProt P22004 375-513) (ligand)
Kd [1]: 0.282 nM

B1
Kd [2]: 0.124 nM

B2
binding result (cryo-EM structure): binds | Kd [3]: 0.036 nM | Kd [4]: 0.0517 nM

B3
Kd [3]: 0.164 nM | Kd [4]: 0.0714 nM

B4
binding result [5]: binds

B5
binding result [2]: binds
